Positions count from the first letter of the chain named.
B1: VRT-21 (Fc fusion)
chain: VTSVWTKGVTPPAKFTQGEDVFHAPYVANQGWYDITKTFNRKDNLLCGAATAGNMLHWWFDQNKEKIEAYLKKHPDKQKIIFGDQELLDVRKVINTKGDQTNSELFNYFRDKAFPGLSARRIGVFPDLVLDMFINGYYLNVYKTQTTDVNRTYQEKDRRGGIFDAVFTRGVQSKLLTSRHDFKEKNLKEISDLIKKELTEGKALGLSHTYANVRINHVINLWGADFDSNGNLKAIYVTDSDTRASIGMKKYFVGVNAAGKVAISAKEIKEDNIGAQVLGLFTLSTGQDSWNQTNDKTHTCPPCPAPEAAGAPSVFLFPPKPKDTLMISRTPEVTCVVVDVSHEDPEVKFNWYVDGVEVHNAKTKPREEQQNSTYRVVSVLTVLHQDWLNGKEYKCKVSNKALKAPIEKTISKAKGQPREPQVYTLPPSRDELTKNQVSLTCLVKGFYPSDIAVEWESNGQPENNYKTTPPVLDSDGSFFLYSKLTVDKSRWQQGNVFSCSVMHEALHNHYTQKSLSLSPG
B2: VRT-23 (Fc fusion)
chain: SQTEDSESLQRLRDIEDFQAEKKMQNVVYTKWLDGVDVKDHDFRKIVDGNIAYYATPLLNGRGFYDINKDFNRDNDKCAAAVAANMFHYWLDINRDNVDRFLRQNPEKHGIIELPDEQLKLSDFLNTYESDHGYRDKSKLFDFISNNFNKPVWTDKLLDNYINGYAYNYKYGRTIEDSTKNTSKINFFKEVFNEKILTNIHSIRNQNEFSVLLSEALYTGKAIGLSYGPAGLRHSLGHIISVWGADLDADGNVVAIYVTDSDDKKLTIGDERVGLKRYKISTDDENRLRLTAYEETHNTGGQIRGLWTLDTGKYAWADYFDKTEQTGTDQAEQDKTHTCPPCPAPEAAGAPSVFLFPPKPKDTLMISRTPEVTCVVVDVSHEDPEVKFNWYVDGVEVHNAKTKPREEQQNSTYRVVSVLTVLHQDWLNGKEYKCKVSNKALKAPIEKTISKAKGQPREPQVYTLPPSRDELTKNQVSLTCLVKGFYPSDIAVEWESNGQPENNYKTTPPVLDSDGSFFLYSKLTVDKSRWQQGNVFSCSVMHEALHNHYTQKSLSLSPG
B3: VRT-24 (Fc fusion)
chain: VTSVWTKGVTPPANFTQGEDVFHAPYKANQGWYDITKTFNGKDNLLCGAATAGNMLHWWFDQNKDQIEAYLKEHPEKQKINFNGEQLFDVKEAIDTKDDQTNSKLFEYFKEKAFPYLSTKHLGVFPDHVLDMFINGYRLSLTNHGPTPVKEGSKDKRGGIFDAVFTRGVQSKLLTSRHDFKEKTLKEISDLIKQELTEGKALALSHTYANVRINHVINLWGADFDSNGNLEAIYVTDSDTNASIGMKKYFVGVNSAGKVAISAKEIEDDNIGAQVLGLFTLSTGQDIWNQTNDKTHTCPPCPAPEAAGAPSVFLFPPKPKDTLMISRTPEVTCVVVDVSHEDPEVKFNWYVDGVEVHNAKTKPREEQQNSTYRVVSVLTVLHQDWLNGKEYKCKVSNKALKAPIEKTISKAKGQPREPQVYTLPPSRDELTKNQVSLTCLVKGFYPSDIAVEWESNGQPENNYKTTPPVLDSDGSFFLYSKLTVDKSRWQQGNVFSCSVMHEALHNHYTQKSLSLSPG
B4: VRT-25 (Fc fusion)
chain: B3 chain with K27V, A69R, D99S, N102D, A203G, N227E, E231K, E267K, D268E
B5: VRT-27 (Fc fusion)
chain: VTSVWTKGVTPPADFTQGEDVFHAPYVANQGWYDITKTFNGKDNLLCGAATAGNMLHWWFDQNKEYIEAYLKKHPEKQKIIFGDQELLDVRKAINTKGSQKNSELFNYFRDKAFPNLSARRLGVFPDLVLDMFINGYYLNVTKTQTTDVNRTYQEKDKRGGIFDAVFTRGVQSKLLTSRHDFKEKGLKEISDLIKQELTEGKALGLSHTYANVRINHVINLWGADFDSDGNLKAIYVTDSDTNASIGMKKYFVGVNSAGKVAISAKEIKEDNIGAQVLGLFTLSTGQDIWNQTNDKTHTCPPCPAPEAAGAPSVFLFPPKPKDTLMISRTPEVTCVVVDVSHEDPEVKFNWYVDGVEVHNAKTKPREEQQNSTYRVVSVLTVLHQDWLNGKEYKCKVSNKALKAPIEKTISKAKGQPREPQVYTLPPSRDELTKNQVSLTCLVKGFYPSDIAVEWESNGQPENNYKTTPPVLDSDGSFFLYSKLTVDKSRWQQGNVFSCSVMHEALHNHYTQKSLSLSPG
B6: VRT-26 (Fc fusion)
chain: VTSVWTKGVTPPTNFTYGEDVLHAPYVANQGWYDITKTFNGKDNLLCGAATAGNMLHWWFDQNKEQIENYLKKHPEKQKINFNGEQLFDVKEAIDTKDSQLDSKLFEYFKEKAFPYLSTKHLGVFPDHVIDMFINGYRLSLTNHGPTPVKRGSKDKRGGIFDAVFTRGVQSKLLTNRHDFKEKTLKEISDLIKQELTEGKALGISHTYANVRINHVINLWGADFDAEGNLEAIYVTDSDTNASIGMKKYFVGVNSNGKVAISAKEIEEDNIGAQVLGLFTLSTGQDIWNQTNDKTHTCPPCPAPEAAGAPSVFLFPPKPKDTLMISRTPEVTCVVVDVSHEDPEVKFNWYVDGVEVHNAKTKPREEQQNSTYRVVSVLTVLHQDWLNGKEYKCKVSNKALKAPIEKTISKAKGQPREPQVYTLPPSRDELTKNQVSLTCLVKGFYPSDIAVEWESNGQPENNYKTTPPVLDSDGSFFLYSKLTVDKSRWQQGNVFSCSVMHEALHNHYTQKSLSLSPG
B7: VRT-22 (Fc fusion)
chain: QITSVWTKGVTPLTPEQFRYYNEDVIHAPYLAHQGWYDITKAFDGKDNLLCGAATAGNMLHWWFDQNKTEIEAYLSKHPEKQKIIFKNQELFDLKAAIDTKDSQTNSQLFNYFRDKAFPGLSARQLGVFPDLVLDMFINGYYLNVFKTQSTDVNRPYQDKDKRGGIFDAVFTRGVQTTLLTARHDLKNKGLNDISTIIKQELTEGRALALSHTYANVRISHVINLWGADFNAEGNLEAIYVTDSDTRASIGMKKYFVGINAHGHVAISAKKIEGENIGAQVLGLFTLSSGKDIWQKLSDKTHTCPPCPAPEAAGAPSVFLFPPKPKDTLMISRTPEVTCVVVDVSHEDPEVKFNWYVDGVEVHNAKTKPREEQQNSTYRVVSVLTVLHQDWLNGKEYKCKVSNKALKAPIEKTISKAKGQPREPQVYTLPPSRDELTKNQVSLTCLVKGFYPSDIAVEWESNGQPENNYKTTPPVLDSDGSFFLYSKLTVDKSRWQQGNVFSCSVMHEALHNHYTQKSLSLSPG

These binders were tested against pooled human IgG (human) (assay: cell-based or functional assay).

Binder	Enzyme Activity Endpoint Assay: Fab′2 [ng/µL]	Enzyme Activity Endpoint Assay: Fc [ng/µL]	Enzyme Activity Endpoint Assay: IgG [ng/µL]	Enzyme Activity Endpoint Assay: scIgG [ng/µL]
B1	0	6	949	11
B2	0	29	1010	20
B3	0	187	392	249
B4	12	204	183	284
B5	0	92	1150	33
B6	0	213	303	342
B7	0	31	1010	21

Reference: patent publication US20250027068A1
